Reference: the nanobody polyreactivity screen of Harvey et al. (2022)

Experiment: yeast display, Sf9 membrane polyspecificity reagent, FACS + sequencing; frameworks hold sequencing errors
Summary of the method: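 Polyreactivity labels are assigned by the sorting gate from which each nanobody was recovered. The gates were low and high (top ~1%), set on anti-HA fluorescence for expression and streptavidin fluorescence for reagent binding. Before sorting, galactose-induced (36–48 hours) yeast display cells were stained for 1 hour at 4 °C with 10% biotinylated, detergent-solubilized Sf9 membrane reagent.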

Sequence | polyreactivity (PSR sort gate)
QVQLVESGGGLVQAGGSLRLSCAASGYIIWDYAMGWYRQAPGKEREFVATISRSVGSTYYADSVKGRFTISRDNAKNTVYLQMNSLKPEDTAVYYCAAVTWGEGFDYWGQGTQVTVSS | low polyreactivity
QVQLVESGGGLVQAGGSLRLSCAASGYILDRNAMGWYIQAPGKEREFVAVISWGGTRTYYADSVKGRFTISRDNAKNTVYLQMNSLKPEDTAVYYCARYPYYYGYAGRYDYWGQGTQVTVSS | high polyreactivity
QVQLVESGGGLVQAGGSLRLSCAASGYILPHNAMGWSRQAPGKDGEMVAAITSSGGSTYYADSVKGRVTISRDNAKNTVYLQMNSLKPEDTAVYYCNTDQYSPYEYSSFDSWGQGTQVTVSS | low polyreactivity
QVQLVESGGGLVQAGGSLRLSCAASGYILYANAMGWYRQAPGKERELVASITFGDDSTYYADSVKGRFTISRDNAKNTVYLQMNSLKPEDTAVYYCNADHKVEVEDDYWGQGTQVTVSS | low polyreactivity
QVQLVESGGGLVQAGGSLRLSCAASGYILYGNTMGWYRQAAGKERELVAVISGGGSTNYADSVKGRFTISRDNAKNTVYLQMNSLKPQDTAVYYCAVKTNQAGYDYWGQGTQVTVSS | low polyreactivity
QVQLVESGGGLVQAGGSLRLSCAASGYISNAMGWYRQAPGKERELVAAISRSGGSTYYADSVKGRFTISRDNAKNTVYLQMNSLKPEDTAVYYCAGDSTYHARRLDYWGQGTQVTVSS | low polyreactivity
QVQLVESGGGLVQAGGSLRLSCAASGYISWAYVMGWYIQAPGKERELVAAISSGTSTYYADSVKGRFTISRDNAKNTVYLQMNSLKPEDTAVYYCAAYYYSYPTNGGYGYWGQGTQVTVSS | low polyreactivity
QVQLVESGGGLVQAGGSLRLSCAASGYIVLVYAMGWYRQAPGKERELFASITRGTRTYYADSVKGRFTISRDNAKNTVYLQMNSLKPEDTAVYYCAAEHSGYPVAFYITGYGYDYWGQGTQVTVSS | low polyreactivity
QVQLVESGGGLVQAGGSLRLSCAASGYIYAYYAMGWYRQAPGKERELVAAITGRGDTTYYADSVKGRFTISRDNAKNTVYLQMNSLIPEDTAVYYCNAEKPTYYYVPGKYDVDYWGQGTQVTVSS | low polyreactivity
QVQLVESGGGLVQAGGSLRLSCAASGYIYDYNAMGWYRQAPGKERELVAAITFRDGSTYADSVKGRFTISRDNGKNTVYLQMNSLKPEDTAVYYCNRRSQVHSHSKHDDWGQGTQVTVSS | low polyreactivity
QVQLVESGGGLVQAGGSLRLSCAASGYIYGVYAMGWYRQAPGKERELVAAISYGVGSTYYADSVKGRFTISRDNAKNTVYLQMNSLKPEDTAVYYCAAEDTQVRWSPVRPLEYYCGQGTQVTVSS | low polyreactivity
QVQLVESGGGLVQAGGSLRLSCAASGYPFGKYAMGWYRQAPGKERELVASIRSGGSTNYADSVKGRFTISRDNAKNTVYVQMNCLKPEDTAVYYCNTRYRYQYGYDYWWQGTQVTVSS | high polyreactivity
QVQLVESGGGLVQAGGSLRLSCAASGYSFYKYAMGWYRQAPGKERELVAAISYSGGSTYYADSVKGRFTISRDNAKNTVYLQMNSLKPEDTAVYYCAAVGATKGLRYGYWGQGTQVTVSS | low polyreactivity
QVQLVESGGGLVQAGGSLRLSCAASGYTFAGNAMGWYRQAPGKERELVAVITYSGGSTYYADSVKGRFTISRDNAKNTVYSQMNSLKPEDTAVYYCNAVRDRYASDYWGQGTQVTVSS | low polyreactivity
QVQLVESGGGLVQAGGSLRLSCAASGYTFAPYVMGWYRQAPGKERELVARISNNGGSKYYADSVKGRFTISRDNAKNTFYLQMNSLKPEDTAVYYCAADVGLIYFRYYYCGQGTQVTVSS | low polyreactivity
QVQLVESGGGLVQAGGSLRLSCAASGYTFARYAMGWYRQATGKERELVAANTSGDRTNYADSVKGRFTISRDNAKNTVYLQMNSLKPEDTAVYYCNATLYSYDASDYWGQGTQVTVSS | low polyreactivity
QVQLVESGGGLVQAGGSLRLSCAASGYTFASYTMGLYRQAPGKERELVATISRGGGRTYYADSVKGRFTISRDNAKNTVYLQMNSLKPEDTAVYYCATRLYPHQYYYWGQGTQVTVSS | high polyreactivity
QVQLVESGGGLVQAGGSLRLSCAASGYTFDLYAMGWYRQAPGKERELVADISSGGSTNYADSVKGRFTISRDNAKNTVYLQMNSLKPEDTAVYYCAVDADRSLFGQYYVSEYGGGYWGQGTQVTVSS | low polyreactivity
QVQLVESGGGLVQAGGSLRLSCAASGYTFDYNAMGSYRQAPGKERELVADITGSGASTSYADSVKGRFTISRDYAKNTVYLQMNSLKPEDTAVYYCNADDSYFYELYGYWGQGTQVTVSS | low polyreactivity
QVQLVESGGGLVQAGGSLRLSCAASGYTFESYTMGWYRQGPGKERDFVAVISSSDTSTSYADSVKGRFTISRDNAKNTVYLQINSLKAEDTAVYYCAAYSSPYYITYYWYNYDYWGQVTQVTVSS | low polyreactivity
QVQLVESGGGLVQAGGSLRLSCAASGYTFFFNVMGWYRQAPGKERELVAAISYSGGSTNYADSVKGRFTISRDNAKNTVYLQINSLKPEDTAVYYCNARTVSRNGYQDDYWGQGTQVTVSS | low polyreactivity
QVQLVESGGGLVQAGGSLRLSCAASGYTFGFYALGWYRQAPGKERELVAAITVSGGSTYYADSVKGRFTISRDNAKNTVYLQMNSLKPEDTAVYYCAAEVWFYSTFLYDYWGQGTQVTVSS | high polyreactivity

Sequence | polyreactivity (PSR sort gate)
QVQLVESGGGLVQAGGSLRLSCAASGYTFGNYAMGWYRQAPGKERELVAGISWSGGSTYYADSVKGRFTISRDNAKNTVYLQMNSLKPEDTAVYYCATRVQGYHNGWYDYWGQGTQVTVSS | high polyreactivity
QVQLVESGGGLVQAGGSLRLSCAASGYTFGSNAMGWYRQAPGKERELVAAISTNGGRTNYADSVKGRFTISRDYAKNSVYLQMYSLIPEDTAVYYCNTRLRVRYYLSGFDYWGQGTQVTVSS | high polyreactivity
QVQLVESGGGLVQAGGSLRLSCAASGYTFGWYAMGWYRQAPGKERELVAAITSDGSTYYADSVKGRFTISRDNEKNTVYLQMNSLIPVDTAVYYCAADATFDSDWGQGTQVTVSS | low polyreactivity
QVQLVESGGGLVQAGGSLRLSCAASGYTFGYYTMGWYRQAPGKERELVASIDSGGGTYYADSVKGRFTISRDNAKNTVYLQMNSLKPEDTAVYYCAARSAILKSGYLMDYWGQGTQVTVSS | low polyreactivity
QVQLVESGGGLVQAGGSLRLSCAASGYTFGYYTMGWYRQAPRKERELVASIDSGGGTNYADSVKGRFTISRDNAKNTVYLQMNSLKPEDTAVYYCAAESPLYWVDDFESGWRYYYWGQGTQVTVSS | low polyreactivity
QVQLVESGGGLVQAGGSLRLSCAASGYTFHGNAMGWYRQAPGKERELVAAISRNGGRTYYADSVKGRFTISRDNAKNTVYLQMHSLKPEDTAVYYCNASKFYGVRFKYDYWGQGTQVTVSS | high polyreactivity
QVQLVESGGGLVQAGGSLRLSCAASGYTFIDNAMGWYRQAPGRERELVAAISDSAGDTYYADSVKGRFTISRDNAKNTVYLQMNSLKPEDTSVYYCAARGYLRGEQLYVFIRYDYWGHGTQVTVSS | low polyreactivity
QVQLVESGGGLVQAGGSLRLSCAASGYTFIDYAMGWYRQAPGKETELVAAITRGGRTNYADSVKGRFTISRDNAKNTVYLQMNSLKPEDTAVYYCAAALRRRRADFDYWGQGTQVTVSS | high polyreactivity
QVQLVESGGGLVQAGGSLRLSCAASGYTFIINAMGWYRQAPGKERELVASISGGGTYYADSVKGRFTISRDNAKNTVYLEMNSLKREDTAVYYCNATRRRKYYKYGGDYWGQGTQVTVSS | high polyreactivity
QVQLVESGGGLVQAGGSLRLSCAASGYTFIVNAMGWYRQAPGKERELVAGISYRGGRTFYADSVKGRFTISRDNAKNTVYLQMTSLKPEDTAVYYCAARKTGIPFYNYDYWGQGTQVTVSS | low polyreactivity
QVQLVESGGGLVQAGGSLRLSCAASGYTFLISAMGWYRQAPGKERELVAVISSGGSTSYADSVKGRFTISRDNAKNTVYLQMNSLKPEDSAVYYCAAALAGGRRGGDYWGQGTQVTVSS | low polyreactivity
QVQLVESGGGLVQAGGSLRLSCAASGYTFLPNAMGWYRQAPGKESEFVAAISYSGGRTYYADSVKGRFTISRDNAKNTVYLLMNSLKPEDTAVYYCARDRRYWAVLSDYWGQGTQVTVSS | low polyreactivity
QVQLVESGGGLVQAGGSLRLSCAASGYTFLYYAMGWYRQAPGKEREFVAAISRSGGSTYYADSVKGRFTISRDNAKNTVYLQMNSLKPEDTAVYYCAARFRYQHQRGDYWGQGTQVTVSS | high polyreactivity
QVQLVESGGGLVQAGGSLRLSCAASGYTFNRNAMGWYRQAPGKERELVASITRRGGYTYYADSVKGRFTISRDNAKNTDYLQMISLKPEDTAVYYCAVESIRTGDYWGQGTQVTVSS | high polyreactivity
QVQLVESGGGLVQAGGSLRLSCAASGYTFPKYAMGWYRQAPGKERELVAAITKRGGRTYSADSVKGRFTISRDNAKNTVYLQMNSLKPEDTAVYYCAVDLDGPEYSQVHYDYWGQGTQVTVSS | high polyreactivity
QVQLVESGGGLVQAGGSLRLSCAASGYTFPLYAMGWYRQAPGTERELVADINIGGASTYYADSVKGRFTISRDNAKNTVYLQMNSLKPEDTAVYYCAADYTVRVVATYDYWGQGTQVTVSS | low polyreactivity
QVQLVESGGGLVQAGGSLRLSCAASGYTFPRYTMGRYRQAPGKERELVAVIRRSGGTHYADSVKGRFTISRDNAKNTVYLLMYSLNPVDIAVYYCAVVSLLQNIPYGFWGQGTQVTVSS | high polyreactivity
QVQLVESGGGLVQAGGSLRLSCAASGYTFPSYAMGWYRQAPGKERELVAVITIGGTYYADSVKGRFTISRDNAKNTVYLQMNSLKPEDTAVYYCAADWAWDYYRGFDYWGQGTQVTVSS | low polyreactivity
QVQLVESGGGLVQAGGSLRLSCAASGYTFRAYVMGRYRQAPGKEREMVAGITRRGGTTYYADSVKGRFTISRDYAKNTVYLQMNSLKPEDTAVYYCTAVFRSGSIPYVSWGQGTQVTVSS | high polyreactivity
QVQLVESGGGLVQAGGSLRLSCAASGYTFRFNAMGWYRQAPGKEREFVAAIDFGGAGTYYADSVKGRFTISRDNAKNTVYLQMNSLKPEDTAVYYCNARDGVTTEFDYWGQGTQVTVSS | low polyreactivity
QVQLVESGGGLVQAGGSLRLSCAASGYTFRPYAMGSYIQAPGKERELVAAISSTGGRTYYADSVKGRFTISRDIAKNTVYVQMNSLKPEYTAVYYCAVLKVYRSSFDYCGQGTQVTVSS | high polyreactivity
